# Reference: publication PMC9482650, “Quantitative fragmentomics allow affinity mapping of interactomes” (Nature Communications, 2022)
# T1: GRIP1_2, Q9Y3R0
# T1 sequence (Q9Y3R0 145-248, limits assumed, looked up): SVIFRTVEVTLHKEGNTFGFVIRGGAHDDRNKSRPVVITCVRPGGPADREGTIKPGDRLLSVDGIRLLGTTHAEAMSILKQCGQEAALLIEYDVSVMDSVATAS
# T2: APBA1_1, Q02410
# T2 sequence (Q02410 651-752, limits assumed, looked up): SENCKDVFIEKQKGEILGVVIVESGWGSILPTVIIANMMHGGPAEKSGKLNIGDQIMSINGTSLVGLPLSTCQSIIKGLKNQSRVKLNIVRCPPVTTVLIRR
# T3: TJP3_3, O95049
# T3 sequence (O95049 375-456, limits assumed, looked up): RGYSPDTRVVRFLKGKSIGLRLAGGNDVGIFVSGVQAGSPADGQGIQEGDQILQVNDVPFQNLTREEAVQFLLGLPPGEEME
# T4: GRIP1_7, Q9Y3R0
# T4 sequence (Q9Y3R0 999-1096, limits assumed, looked up): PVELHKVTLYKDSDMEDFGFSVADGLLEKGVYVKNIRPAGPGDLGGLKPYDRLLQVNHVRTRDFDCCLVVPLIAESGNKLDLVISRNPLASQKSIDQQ
# T5: GRIP1_5, Q9Y3R0
# T5 sequence (Q9Y3R0 568-668, limits assumed, looked up): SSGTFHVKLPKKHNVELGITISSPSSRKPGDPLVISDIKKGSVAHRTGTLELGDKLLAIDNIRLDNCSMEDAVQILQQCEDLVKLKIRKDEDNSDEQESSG
# T6: APBA2_1, Q99767
# T6 sequence (Q99767 563-664, limits assumed, looked up): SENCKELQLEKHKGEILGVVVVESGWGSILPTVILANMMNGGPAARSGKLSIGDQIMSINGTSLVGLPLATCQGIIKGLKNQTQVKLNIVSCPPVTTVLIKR
# T7: SYNJ2BP, P57105
# T7 sequence (P57105 8-110, limits assumed, looked up): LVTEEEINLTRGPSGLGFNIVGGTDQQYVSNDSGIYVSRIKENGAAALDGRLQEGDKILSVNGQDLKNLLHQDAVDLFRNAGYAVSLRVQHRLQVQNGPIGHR
# T8: MPP7, Q5T2T1
# T8 sequence (Q5T2T1 134-230, limits assumed, looked up): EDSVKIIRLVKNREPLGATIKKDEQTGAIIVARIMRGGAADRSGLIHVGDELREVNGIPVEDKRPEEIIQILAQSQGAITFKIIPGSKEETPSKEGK
# T9: GRIP1_3, Q9Y3R0
# T9 sequence (Q9Y3R0 247-346, limits assumed, looked up): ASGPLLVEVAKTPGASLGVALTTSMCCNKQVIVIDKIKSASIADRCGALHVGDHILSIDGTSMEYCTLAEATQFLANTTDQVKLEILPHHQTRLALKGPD
# Assays:
# Experiment in all cases: holdup assay
# Set-up in all cases: key: below the threshold = too weak to quantify, mostly under pKd 3.1 to 4
# Details in all cases: plain residues with an end cap or a label only (N-terminal biotin on a linker: ado-ado)
# GRIP1_2, Q9Y3R0 = molecular target: T1, GRIP1_2, Q9Y3R0
# MAGI2_2, Q86UL8 = molecular target: MAGI2_2, Q86UL8
# Inadl_2, Q8NI35 = molecular target: Inadl_2, Q8NI35
# DLG5_1, Q8TDM6 = molecular target: DLG5_1, Q8TDM6
# GRIP2_7, Q9C0E4 = molecular target: GRIP2_7, Q9C0E4
# SNX27, Q96L92 = molecular target: SNX27, Q96L92
# SCRIB_2, Q14160 = molecular target: SCRIB_2, Q14160
# MAGI2_4, Q86UL8 = molecular target: MAGI2_4, Q86UL8
# GRIP2_5, Q9C0E4 = molecular target: GRIP2_5, Q9C0E4
# GRIP2_4, Q9C0E4 = molecular target: GRIP2_4, Q9C0E4
# APBA1_1, Q02410 = molecular target: T2, APBA1_1, Q02410
# FRMPD4, Q14CM0 = molecular target: FRMPD4, Q14CM0
# PDZRN4_1, Q6ZMN7 = molecular target: PDZRN4_1, Q6ZMN7
# GRIP2_6, Q9C0E4 = molecular target: GRIP2_6, Q9C0E4
# SCRIB_1, Q14160 = molecular target: SCRIB_1, Q14160
# TJP3_3, O95049 = molecular target: T3, TJP3_3, O95049
# GORASP2, Q9H8Y8 = molecular target: GORASP2, Q9H8Y8
# GRIP1_7, Q9Y3R0 = molecular target: T4, GRIP1_7, Q9Y3R0
# GRIP1_5, Q9Y3R0 = molecular target: T5, GRIP1_5, Q9Y3R0
# APBA2_1, Q99767 = molecular target: T6, APBA2_1, Q99767
# SYNJ2BP, P57105 = molecular target: T7, SYNJ2BP, P57105
# HTRA2, O43464 = molecular target: HTRA2, O43464
# MPP7, Q5T2T1 = molecular target: T8, MPP7, Q5T2T1
# CASK, O14936 = molecular target: CASK, O14936
# GRID2IP_1, A4D2P6 = molecular target: GRID2IP_1, A4D2P6
# TJP2_1, Q9UDY2 = molecular target: TJP2_1, Q9UDY2
# LAP2, Q96RT1 = molecular target: LAP2, Q96RT1
# GRIP1_3, Q9Y3R0 = molecular target: T9, GRIP1_3, Q9Y3R0
# Sequence of LAP2, Q96RT1 (Q96RT1 other isoform, or with tags, fused parts or gaps): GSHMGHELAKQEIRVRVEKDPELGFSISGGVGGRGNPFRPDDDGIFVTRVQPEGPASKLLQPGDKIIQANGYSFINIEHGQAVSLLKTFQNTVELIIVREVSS
# Sequence of MAGI2_4, Q86UL8 (Q86UL8 772-865): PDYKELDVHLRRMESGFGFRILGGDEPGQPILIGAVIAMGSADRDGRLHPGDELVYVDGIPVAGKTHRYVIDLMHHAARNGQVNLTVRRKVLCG
# Sequence of SCRIB_2, Q14160 (Q14160 857-960): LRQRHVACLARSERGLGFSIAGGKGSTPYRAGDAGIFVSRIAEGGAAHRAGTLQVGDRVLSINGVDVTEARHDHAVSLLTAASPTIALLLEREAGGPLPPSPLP
# Sequence of Inadl_2, Q8NI35 (Q8NI35 238-335): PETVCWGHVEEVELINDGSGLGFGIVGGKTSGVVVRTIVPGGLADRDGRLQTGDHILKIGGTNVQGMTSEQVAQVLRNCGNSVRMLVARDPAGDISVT
# Sequence of SCRIB_1, Q14160 (Q14160 718-814): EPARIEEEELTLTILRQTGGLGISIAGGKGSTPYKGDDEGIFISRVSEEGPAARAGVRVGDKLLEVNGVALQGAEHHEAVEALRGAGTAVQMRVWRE
# Sequence of GRIP2_6, Q9C0E4 (Q9C0E4 648-740): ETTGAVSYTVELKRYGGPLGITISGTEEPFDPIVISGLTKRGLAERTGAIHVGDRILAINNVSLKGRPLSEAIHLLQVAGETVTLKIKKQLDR
# Sequence of TJP2_1, Q9UDY2 (Q9UDY2 24-128): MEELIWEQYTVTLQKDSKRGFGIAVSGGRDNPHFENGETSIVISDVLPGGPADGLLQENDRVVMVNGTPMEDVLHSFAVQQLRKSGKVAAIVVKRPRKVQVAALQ
# Sequence of GRIP2_5, Q9C0E4 (Q9C0E4 544-642): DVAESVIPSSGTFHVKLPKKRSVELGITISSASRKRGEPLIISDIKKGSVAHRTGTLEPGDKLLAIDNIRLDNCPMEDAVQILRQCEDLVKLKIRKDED
# Sequence of GRID2IP_1, A4D2P6 (A4D2P6 1-87): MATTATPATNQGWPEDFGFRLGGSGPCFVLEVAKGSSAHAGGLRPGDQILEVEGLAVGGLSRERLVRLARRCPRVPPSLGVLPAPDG
# Sequence of GRIP2_4, Q9C0E4 (Q9C0E4 446-548): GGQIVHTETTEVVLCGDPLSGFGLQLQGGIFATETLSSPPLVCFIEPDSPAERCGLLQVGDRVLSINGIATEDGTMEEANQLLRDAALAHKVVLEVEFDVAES
# Sequence of DLG5_1, Q8TDM6 (Q8TDM6 617-713): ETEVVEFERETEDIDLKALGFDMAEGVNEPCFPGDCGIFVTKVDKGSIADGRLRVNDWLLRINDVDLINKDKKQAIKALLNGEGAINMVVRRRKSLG
# Sequence of FRMPD4, Q14CM0 (Q14CM0 67-160): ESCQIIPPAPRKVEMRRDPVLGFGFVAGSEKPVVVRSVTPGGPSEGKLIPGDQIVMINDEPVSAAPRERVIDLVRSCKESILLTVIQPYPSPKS
# Sequence of GRIP2_7, Q9C0E4 (Q9C0E4 934-1023): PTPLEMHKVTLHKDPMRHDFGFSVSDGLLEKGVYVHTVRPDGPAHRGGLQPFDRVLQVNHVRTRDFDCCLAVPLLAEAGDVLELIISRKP
# Sequence of MAGI2_2, Q86UL8 (Q86UL8 410-522): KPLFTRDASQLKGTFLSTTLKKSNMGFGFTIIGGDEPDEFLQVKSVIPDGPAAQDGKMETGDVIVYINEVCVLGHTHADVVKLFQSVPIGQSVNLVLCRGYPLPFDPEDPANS
# Sequence of HTRA2, O43464 (O43464 355-458): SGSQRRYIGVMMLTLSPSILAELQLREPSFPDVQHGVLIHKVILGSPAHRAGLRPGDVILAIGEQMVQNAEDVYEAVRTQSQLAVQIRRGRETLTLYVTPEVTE
# Sequence of PDZRN4_1, Q6ZMN7 (Q6ZMN7 213-318): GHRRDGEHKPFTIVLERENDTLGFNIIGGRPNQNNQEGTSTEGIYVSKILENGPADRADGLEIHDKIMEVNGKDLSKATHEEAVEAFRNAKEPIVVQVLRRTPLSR
# Sequence of CASK, O14936 (O14936 487-570): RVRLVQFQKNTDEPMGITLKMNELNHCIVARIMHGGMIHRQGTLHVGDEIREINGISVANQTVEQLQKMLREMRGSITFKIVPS
binder,measurement,setting,value
"KAEEKPPSKV [SCN4B, Q8IWT1]",pKd,"GRIP1_2, Q9Y3R0",below the threshold
same,pKd,"MAGI2_2, Q86UL8",below the threshold
same,pKd,"Inadl_2, Q8NI35",below the threshold
same,pKd,"DLG5_1, Q8TDM6",below the threshold
same,pKd,"GRIP2_7, Q9C0E4",below the threshold
same,pKd,"SNX27, Q96L92",below the threshold
same,pKd,"SCRIB_2, Q14160",below the threshold
same,pKd,"MAGI2_4, Q86UL8",below the threshold
same,pKd,"GRIP2_5, Q9C0E4",below the threshold
same,pKd,"GRIP2_4, Q9C0E4",below the threshold
same,pKd,"APBA1_1, Q02410",below the threshold
same,pKd,"FRMPD4, Q14CM0",below the threshold
same,pKd,"PDZRN4_1, Q6ZMN7",below the threshold
same,pKd,"GRIP2_6, Q9C0E4",below the threshold
same,pKd,"SCRIB_1, Q14160",below the threshold
same,pKd,"TJP3_3, O95049",below the threshold
same,pKd,"GORASP2, Q9H8Y8",below the threshold
same,pKd,"GRIP1_7, Q9Y3R0",below the threshold
same,pKd,"GRIP1_5, Q9Y3R0",below the threshold
same,pKd,"APBA2_1, Q99767",below the threshold
same,pKd,"SYNJ2BP, P57105",below the threshold
same,pKd,"HTRA2, O43464",below the threshold
same,pKd,"MPP7, Q5T2T1",below the threshold
same,pKd,"CASK, O14936",below the threshold
same,pKd,"GRID2IP_1, A4D2P6",below the threshold
same,pKd,"TJP2_1, Q9UDY2",below the threshold
same,pKd,"LAP2, Q96RT1",3.89
same,pKd,"GRIP1_3, Q9Y3R0",below the threshold
"HDDYFYHDEL [RCN2, Q14257]",pKd,"GRIP1_2, Q9Y3R0",below the threshold
same,pKd,"MAGI2_2, Q86UL8",below the threshold
same,pKd,"Inadl_2, Q8NI35",below the threshold
same,pKd,"DLG5_1, Q8TDM6",below the threshold
same,pKd,"GRIP2_7, Q9C0E4",below the threshold
same,pKd,"SNX27, Q96L92",3.77
same,pKd,"SCRIB_2, Q14160",below the threshold
same,pKd,"MAGI2_4, Q86UL8",below the threshold
same,pKd,"GRIP2_5, Q9C0E4",below the threshold
same,pKd,"GRIP2_4, Q9C0E4",below the threshold
same,pKd,"APBA1_1, Q02410",below the threshold
same,pKd,"FRMPD4, Q14CM0",3.94
same,pKd,"PDZRN4_1, Q6ZMN7",below the threshold
same,pKd,"GRIP2_6, Q9C0E4",below the threshold
same,pKd,"SCRIB_1, Q14160",below the threshold
same,pKd,"TJP3_3, O95049",below the threshold
same,pKd,"GORASP2, Q9H8Y8",below the threshold
same,pKd,"GRIP1_7, Q9Y3R0",below the threshold
same,pKd,"GRIP1_5, Q9Y3R0",below the threshold
same,pKd,"APBA2_1, Q99767",below the threshold
same,pKd,"SYNJ2BP, P57105",below the threshold
same,pKd,"HTRA2, O43464",below the threshold
same,pKd,"MPP7, Q5T2T1",below the threshold
same,pKd,"CASK, O14936",below the threshold
same,pKd,"GRID2IP_1, A4D2P6",below the threshold
same,pKd,"TJP2_1, Q9UDY2",below the threshold
same,pKd,"LAP2, Q96RT1",below the threshold
same,pKd,"GRIP1_3, Q9Y3R0",below the threshold
"KKTPVSRSHL [SLC22A3, O75751]",pKd,"GRIP1_2, Q9Y3R0",below the threshold
same,pKd,"MAGI2_2, Q86UL8",below the threshold
same,pKd,"Inadl_2, Q8NI35",below the threshold
same,pKd,"DLG5_1, Q8TDM6",below the threshold
same,pKd,"GRIP2_7, Q9C0E4",below the threshold
same,pKd,"SNX27, Q96L92",3.65
same,pKd,"SCRIB_2, Q14160",below the threshold
same,pKd,"MAGI2_4, Q86UL8",below the threshold
same,pKd,"GRIP2_5, Q9C0E4",below the threshold
same,pKd,"GRIP2_4, Q9C0E4",below the threshold
same,pKd,"APBA1_1, Q02410",below the threshold
same,pKd,"FRMPD4, Q14CM0",3.58
same,pKd,"PDZRN4_1, Q6ZMN7",3.66
same,pKd,"GRIP2_6, Q9C0E4",below the threshold
same,pKd,"SCRIB_1, Q14160",3.91
same,pKd,"TJP3_3, O95049",below the threshold
same,pKd,"GORASP2, Q9H8Y8",below the threshold
same,pKd,"GRIP1_7, Q9Y3R0",below the threshold
same,pKd,"GRIP1_5, Q9Y3R0",below the threshold
same,pKd,"APBA2_1, Q99767",below the threshold
same,pKd,"SYNJ2BP, P57105",below the threshold
same,pKd,"HTRA2, O43464",below the threshold
same,pKd,"MPP7, Q5T2T1",below the threshold
same,pKd,"CASK, O14936",below the threshold
same,pKd,"GRID2IP_1, A4D2P6",below the threshold
same,pKd,"TJP2_1, Q9UDY2",below the threshold
same,pKd,"LAP2, Q96RT1",below the threshold
same,pKd,"GRIP1_3, Q9Y3R0",below the threshold
"LPPPESESKV [KCNJ9, Q92806]",pKd,"GRIP1_2, Q9Y3R0",below the threshold
same,pKd,"MAGI2_2, Q86UL8",below the threshold
same,pKd,"Inadl_2, Q8NI35",below the threshold
same,pKd,"DLG5_1, Q8TDM6",below the threshold
same,pKd,"GRIP2_7, Q9C0E4",below the threshold
same,pKd,"SNX27, Q96L92",5.43
same,pKd,"SCRIB_2, Q14160",below the threshold
same,pKd,"MAGI2_4, Q86UL8",below the threshold
same,pKd,"GRIP2_5, Q9C0E4",below the threshold
same,pKd,"GRIP2_4, Q9C0E4",below the threshold
same,pKd,"APBA1_1, Q02410",below the threshold
same,pKd,"FRMPD4, Q14CM0",below the threshold
same,pKd,"PDZRN4_1, Q6ZMN7",below the threshold
same,pKd,"GRIP2_6, Q9C0E4",below the threshold
same,pKd,"SCRIB_1, Q14160",below the threshold
same,pKd,"TJP3_3, O95049",below the threshold
same,pKd,"GORASP2, Q9H8Y8",below the threshold
same,pKd,"GRIP1_7, Q9Y3R0",below the threshold
same,pKd,"GRIP1_5, Q9Y3R0",below the threshold
same,pKd,"APBA2_1, Q99767",below the threshold
same,pKd,"SYNJ2BP, P57105",4.02
same,pKd,"HTRA2, O43464",below the threshold
same,pKd,"MPP7, Q5T2T1",below the threshold
same,pKd,"CASK, O14936",below the threshold
same,pKd,"GRID2IP_1, A4D2P6",below the threshold
same,pKd,"TJP2_1, Q9UDY2",below the threshold
same,pKd,"LAP2, Q96RT1",3.85
same,pKd,"GRIP1_3, Q9Y3R0",below the threshold
